The values below come from US20160176928A1 (Bristol-Myers Squibb, published 2016).

This experiment concerns the target T1, Recombinant Human PD-L1-TVMV-His, hPDL1(19-239)-TVMV-His (human, UniProt Q9NZQ7 19-239).
T1 construct: also called PD-L1-His; soluble PD-L1
The experiment is described as follows: HTRF competition of PD-1-Ig binding to PD-L1-His; grade, legend paragraph 524: A=0.10-10 µM. The protocol: Homogenous Time-Resolved Fluorescence (HTRF) Assays of Binding of Soluble PD-1 to Soluble PD-L1. Soluble PD-1 and soluble PD-L1 refers to proteins with carboxyl-end truncations that remove the transmembrane-spanning regions and are fused to heterologous sequences, specifically the Fc portion of the human immunoglobuling G sequence (Ig) or the hexahistidine epitope tag (His). All binding studies were performed in an HTRF assay buffer consisting of dPBS supplemented with 0.1% (w/v) bovine serum albumin and 0.05% (v/v) Tween-20. For the PD-1-Ig/PD-L1-His binding assay, inhibitors were pre-incubated with PD-L1-His (10 nM final) for 15 m in 4 μl of assay buffer, followed by addition of PD-1-Ig (20 nM final) in 1 μl of assay buffer and further incubation for 15m. PD-L1 fusion proteins from either human, cynomologous macaques, mouse, or other species were used. HTRF detection was achieved using europium crypate-labeled anti-Ig monoclonal antibody (1 nM final) and allophycocyanin (APC) labeled anti-His monoclonal antibody (20 nM final). Antibodies were diluted in HTRF detection buffer and 5 μl was dispensed on top of binding reaction. The reaction was allowed to equilibrate for 30 minutes and signal (665 nm/620 nm ratio) was obtained using an EnVision fluorometer. […]

T1 sequence (Q9NZQ7 other isoform, or with tags, fused parts or gaps limits assumed): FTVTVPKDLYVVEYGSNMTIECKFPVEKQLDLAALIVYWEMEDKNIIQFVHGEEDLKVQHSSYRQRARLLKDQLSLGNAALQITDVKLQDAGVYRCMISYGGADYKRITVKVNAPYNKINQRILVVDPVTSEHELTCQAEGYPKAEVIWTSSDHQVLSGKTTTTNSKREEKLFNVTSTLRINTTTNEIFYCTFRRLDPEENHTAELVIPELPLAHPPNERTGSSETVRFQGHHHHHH

B1: Example 1001 (peptide)
peptide: FANPHLXWSWXXRCG
modifications: not fully specified; N-terminal acetyl group (from chloroacetyl capping) joined as a thioether to the side chain of Cys 14 (macrocycle); N-methyl-Ala at 2; X at 7 = residue from 'Fmoc-Cyclopenty-Gly-OH'; X at 11 and 12 = N-methyl-norleucine; C-terminal amide (Rink resin)
notes: the structure itself is only a drawing (CHEM-US-00006)
On to B1, for which the IC50 fell in the range of 0.1 to 10 µM.

For orientation: IC50 means the concentration at which inhibition is half-maximal.
